Laboratory results as given in the supplement of paper PMC10567573.

B1: FAM189A2 (parent)
chain: PRCDLVDLGEGKICFCCEEFQPAK

Variants of: B1
Experiment: protein stability index of a GFP-peptide fusion (GPS, HEK-293T) (PSI 1-6); higher = more stable
Settings: c terminus: a fixed tail appended
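Further: lentivirally expressed fusions sorted by FACS into six bins by GFP to DsRed ratio, PSI derived from sequencing read proportions per bin multiplied by bin number.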

Protein stability index, by site and new letter:
V6: C 4.15 | D 3.34 | E 3.48 | F 2.71 | G 3.46 | H 4.45 | I 2.49 | K 3.78 | L 2.6 | M 2.65 | N 3.71 | P 3.03 | Q 3.92 | R 3.4 | S 3.21 | T 2.98 | W 2.28 | Y 2.73
D7: A 2.61 | C 2.92 | E 3.05 | F 2.03 | G 3.28 | H 3.25 | I 1.71 | K 3.76 | L 2.3 | M 1.93 | N 2.76 | P 3.17 | Q 2.2 | R 2.6 | S 2.21 | T 2.79 | V 1.89 | W 2.24 | Y 2.12
L8: A 3.54 | C 3.87 | D 3.67 | E 3.65 | F 3.46 | G 4.48 | H 3.98 | I 3.13 | K 3.41 | M 3.74 | N 3.73 | P 3.58 | Q 4.32 | R 3.91 | S 3.97 | T 3.92 | V 2.97 | W 3.23 | Y 2.21
G9: A 2.9 | C 2.91 | D 3.18 | E 2.86 | F 1.77 | H 3.06 | I 2.24 | K 2.96 | L 2.21 | M 2.04 | N 2.28 | P 2.99 | Q 2.33 | R 2.14 | S 2.77 | T 2.83 | V 2.52 | W 2.08 | Y 2.94
E10: A 2.56 | C 2.63 | D 3 | F 2.35 | G 3 | H 2.88 | I 2.08 | K 2.82 | L 2.08 | M 2.01 | N 2.65 | P 2.88 | Q 2.73 | R 2.54 | S 2.36 | T 2.75 | V 2.26 | W 1.85 | Y 2.29
G11: A 2.63 | C 2.45 | D 3.28 | E 3.44 | F 1.51 | H 2.81 | I 1.86 | K 2.4 | L 1.95 | M 2.21 | N 3.33 | P 2.52 | Q 2.98 | R 2.55 | S 2.8 | T 2.64 | V 1.05 | W 2.69 | Y 2.52
K12: A 3.51 | C 3.45 | D 3.4 | E 3.6 | F 2.85 | G 2.21 | H 4.16 | I 2.46 | L 2.42 | M 2.04 | N 2.7 | P 3.25 | Q 3.89 | R 1.99 | S 3.38 | T 2.63 | V 2.35 | W 2.32 | Y 2.42
I13: A 3.01 | C 3.38 | D 4.28 | E 3.73 | F 3.02 | G 3.55 | H 3.89 | K 3.71 | L 2.72 | M 4.02 | N 3.78 | P 3.41 | Q 3.27 | R 3.44 | S 3.57 | T 3.1 | V 2.86 | W 2.11 | Y 2.3
C14: A 3.62 | D 4.07 | E 4.24 | F 2.16 | G 3.56 | H 3.48 | I 2.39 | K 3.94 | L 3.15 | M 2.87 | N 4.56 | P 3.94 | Q 3.79 | R 3.51 | S 3.3 | T 3.47 | V 3.06 | W 2.51 | Y 2.46
F15: A 3.94 | C 3.86 | D 4.74 | E 4.19 | G 3.79 | H 3.77 | I 2.38 | K 4.07 | L 3.39 | M 2.8 | N 4.66 | P 3.55 | Q 4.13 | R 3.33 | S 4.47 | T 4.07 | V 3.43 | W 3.04 | Y 2.81
C16: A 3.45 | D 3.88 | E 3.64 | F 2.66 | G 3.44 | H 4.23 | I 2.09 | K 3.76 | L 2.71 | M 3.07 | N 3.93 | P 4.24 | Q 3.89 | R 3.13 | S 3.28 | T 3.05 | V 2.85 | W 2.1 | Y 2.22
C17: A 3.34 | D 4.29 | E 4.67 | F 2.37 | G 3.92 | H 3.11 | I 2.05 | K 3.64 | L 2.15 | M 2.66 | N 3.96 | P 3.27 | Q 3.12 | R 3.28 | S 3.5 | T 4.05 | W 2.51 | Y 2.66
E18: A 3.34 | C 2.62 | D 2.56 | F 2.29 | G 2.64 | H 2.85 | I 2.63 | K 2.77 | L 1.71 | M 2.07 | N 2.78 | P 2.98 | Q 2.64 | R 2.28 | S 2.55 | T 2.45 | V 2.53 | W 2.01 | Y 2.07
E19: A 2.51 | C 3.96 | D 2.97 | F 1.78 | G 2.71 | H 2.94 | I 1.55 | K 2.09 | L 2 | N 3.21 | P 3.04 | Q 3.05 | R 2.21 | S 2.26 | T 3.13 | V 1.65 | W 2.25 | Y 2.03
F20: A 3.32 | C 3.15 | D 4.05 | E 4.91 | G 3.59 | H 4.34 | I 3.6 | K 3.89 | L 2.42 | M 3.16 | N 3.86 | P 4 | Q 2.59 | R 4.13 | S 3.89 | T 3.97 | V 3.75 | W 2.4 | Y 3.1
Q21: A 3.44 | C 4.17 | D 3.61 | E 3.87 | F 2.24 | G 3.07 | H 3.1 | I 2.68 | K 2.79 | L 2.65 | M 2.24 | N 3.14 | P 2.86 | R 2.44 | S 2.65 | T 3.55 | V 2.66 | W 2.48 | Y 2.33
P22: A 3.31 | C 3.51 | D 4.31 | E 3.49 | F 3.12 | G 3.86 | H 3.13 | I 2.75 | K 3.42 | L 2.74 | M 3.07 | N 3.28 | Q 3.51 | R 2.51 | T 3.23 | V 2.69 | W 3.08 | Y 3.06
A23: C 3.98 | D 3.12 | E 4.35 | F 2.85 | G 2.72 | H 3.07 | I 2.65 | K 3.36 | L 3.1 | M 1.96 | N 3.15 | P 2.44 | Q 3.5 | R 2.24 | S 2.66
